Legend:
cyno FGFR2b on cells [1] = molecular target: T1, cyno FGFR2b on cells (cyno, UniProt A0A2K5TL97 22-821); assay: flow cytometry, cyno FGFR2b OE cells
[2] = molecular target: T2, cyno FGFR2b protein (recombinant) (cyno, UniProt A0A2K5TL97 22-380); assay: SPR, antibody captured by anti-human Fc, cyno FGFR2b
[3] = molecular target: T2, cyno FGFR2b protein (recombinant); assay: ELISA, plate-coated cyno FGFR2b
cyno FGFR2b on cells [4] = molecular target: T1, cyno FGFR2b on cells; assay: flow cytometry, Expi293 cells overexpressing cyno FGFR2b

T1 sequence (A0A2K5TL97 entry or part of it): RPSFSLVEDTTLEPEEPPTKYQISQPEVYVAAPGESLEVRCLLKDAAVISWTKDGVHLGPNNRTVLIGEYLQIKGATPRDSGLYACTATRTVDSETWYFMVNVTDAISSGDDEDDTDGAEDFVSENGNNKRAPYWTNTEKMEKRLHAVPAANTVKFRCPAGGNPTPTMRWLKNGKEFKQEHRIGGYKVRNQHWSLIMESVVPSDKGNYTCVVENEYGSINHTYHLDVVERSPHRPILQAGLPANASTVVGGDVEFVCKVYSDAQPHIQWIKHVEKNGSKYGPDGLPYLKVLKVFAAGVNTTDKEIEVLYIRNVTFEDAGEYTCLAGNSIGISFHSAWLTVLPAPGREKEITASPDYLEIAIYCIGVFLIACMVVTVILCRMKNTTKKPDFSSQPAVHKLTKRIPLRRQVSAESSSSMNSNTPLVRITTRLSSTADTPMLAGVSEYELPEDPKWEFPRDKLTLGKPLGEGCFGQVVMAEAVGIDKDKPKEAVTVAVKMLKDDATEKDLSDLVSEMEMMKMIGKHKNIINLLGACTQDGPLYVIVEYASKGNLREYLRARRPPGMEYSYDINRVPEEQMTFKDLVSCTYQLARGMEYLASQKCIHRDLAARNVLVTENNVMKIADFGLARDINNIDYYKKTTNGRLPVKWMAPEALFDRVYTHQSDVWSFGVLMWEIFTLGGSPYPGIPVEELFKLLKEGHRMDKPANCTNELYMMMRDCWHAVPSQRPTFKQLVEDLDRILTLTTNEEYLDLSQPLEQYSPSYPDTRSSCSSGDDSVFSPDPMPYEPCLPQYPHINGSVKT

Row | Binder | EC50 (cyno FGFR2b on cells [1]) | Kd [2] | koff [2] | kon [2] | EC50 [3] | Emax (A450) [3] | EC50 (cyno FGFR2b on cells [4]) | Emax (MFI) (cyno FGFR2b on cells [4])
1 | BGA1421 (antibody, human IgG1, kappa, V domains shown, also called bemarituzumab; comparator antibody alone (un-conjugated)) VH: QVQLVQSGAEVKKPGSSVKVSCKASGYIFTTYNVHWVRQAPGQGLEWIGSIYPDNGDTSYNQNFKGRATITADKSTSTAYMELSSLRSEDTAVYYCARGDFAYWGQGTLVTVSS VL: DIQMTQSPSSLSASVGDRVTITCKASQGVSNDVAWYQQKPGKAPKLLIYSASYRYTGVPSRFSGSGSGTDFTFTISSLQPEDIATYYCQQHSTTPYTFGQGTKLEIKR | 0.49 nM |  |  |  |  |  |  | 
2 | BGAh9239 (antibody, human IgG1, kappa, V domains shown, also called humanized antibody developed from BGAm1823) VH: QVQLVQSGAEVKKPGSSVKVSCKASGYTFSIYWLNWVRQAPGQGLEWMGQIYPENADTNYSGKFKGRVTITADKSTSTAYMELSSLRSEDTAVYFCARGGFDYWGQGTLVTVSS VL: DIQMTQSPSSLSASVGDRVTITCRASENIYSNLAWYQQKPGKAPKLLIYTATNLAEGVPSRFSGSGSGTDFTLTISSLQPEDFATYYCQHFYGILYTFGQGTRLEIKR | 1.55 nM | 34 nM | 0.00272 s⁻¹ | 79900 M⁻¹ s⁻¹ | 0.0442 nM | 2.93 A450 | 7.93 nM | 6.88e+06 MFI
3 | BGAh9179 (antibody, human IgG1, kappa, V domains shown, also called BGA9179; humanized antibody developed from BGAm1371) VH: QVQLVQSGAEVKKPGASVKVSCKASGYTITDTYIHWVRQAPGQGLEWMGRIDPAEGNTMFASEFQGRVTMTADTSTSTVYMELSSLRSEDTAVYYCARSKIHYDYDEGFAYWGQGTLVTVSS VL: DIVLTQSPDSLAVSLGERATINCRASESVDDYGYSFLHWYQQKPGQPPKLLIYRASNLESGVPDRFSGSGSGTDFTLTISSLQAEDVAVYYCQQSNQNPRTFGGGTKVEIKR |  | 20.6 nM | 0.00172 s⁻¹ | 83700 M⁻¹ s⁻¹ | 0.0469 nM | 2.95 A450 | 8.45 nM | 6.25e+06 MFI
4 | BGAm1371 (antibody, V domains shown, assays detect or capture it with anti-human IgG; also called parental mouse clone; murine parental antibody of BGAh9179) VH: QVQLKQSGAELVKPGASVKLSCTASGFNIKDTYIHWVKQRPEQGLEWIGRIDPANGNTMFASEFQGKATITAYTSSNTAYMQLSSLTSGDTAVYYCARSKIHYDYDEGFAYWGQGTLVTVSS VL: NIVLTQSPPSLAVSLGQRATVSCRASESVDDYGYSFLHWYQQKPGQPPKLLIYRASNLESGIPARFSGSGSRTDFTLTINPVETDDVATYYCQQSNQNPRTFGGGTKLEIK | 5.02 nM | 15.7 nM | 0.00125 s⁻¹ | 79700 M⁻¹ s⁻¹ | 0.0245 nM | 3.02 A450 | 4.73 nM | 6.19e+06 MFI
5 | BGAm1823 (antibody, V domains shown, assays detect or capture it with anti-human IgG; also called murine parental antibody of BGAh9239) VH: EVQLQQSGAELVKPGASVKISCKASGYAFSIYWMNWVKQRPGKGLEWIGQIYPENGDTNYNGKFKGKATLTADKSSSTAYMHLSSLTSEDSAVYFCARGGFDYWGQGTTLTVSS VL: NIVMTQSPASLSASVGETVTITCRASENIYSNLAWYQQKQGKSPQLLVYTATNLADGVPSRFSGSGSGTQFSLKINSLQPEDFGSYYCQHFYGILYTFGSGTRLEIK |  | 24.6 nM | 0.0018 s⁻¹ | 73500 M⁻¹ s⁻¹ | 0.0551 nM | 3 A450 | 6.27 nM | 7.36e+06 MFI
6 | BGA2354 (antibody, human IgG1, lambda, V domains shown, also called M047 (Bayer; BAY1895344)) VH: EVQLLESGGGLVQPGGSLRLSCAASGFTFRTSGMHWVRQAPGKGLEWVAVISYDGSNKYYADSVKGRFTISRDNSKNTLYLQMNSLRAEDTAVYYCARESPGYDFEYWGQGTLVTVSS VL: not shown | 0.34 nM |  |  |  |  |  |  | 

— patent US20250222125A1 (BEIGENE, published 2025)
